{"source": "paper doi:10.1101/2023.08.13.546412", "about": "(bioRxiv, 2023)", "molecular_target": "T1, GST-AtSK21 (Arabidopsis thaliana, UniProt Q39011 1-380)", "T1 sequence (looked up)": "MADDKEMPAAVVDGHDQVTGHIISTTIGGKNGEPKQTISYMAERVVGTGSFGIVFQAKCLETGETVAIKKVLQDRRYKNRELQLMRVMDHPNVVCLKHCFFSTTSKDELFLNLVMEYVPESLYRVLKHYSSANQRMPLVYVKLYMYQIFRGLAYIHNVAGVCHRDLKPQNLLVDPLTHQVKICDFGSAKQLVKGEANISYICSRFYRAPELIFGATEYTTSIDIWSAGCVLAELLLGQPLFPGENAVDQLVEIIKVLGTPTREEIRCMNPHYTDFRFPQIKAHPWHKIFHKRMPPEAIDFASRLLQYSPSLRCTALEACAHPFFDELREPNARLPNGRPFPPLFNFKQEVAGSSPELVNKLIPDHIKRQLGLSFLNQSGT", "test": "pull-down", "data": [{"binder": "MBP-WOX5 (natural protein, Arabidopsis thaliana, UniProt Q8H1D2 1-182, looked up) MSFSVKGRSLRGNNNGGTGTKCGRWNPTVEQLKILTDLFRAGLRTPTTDQIQKISTELSFYGKIESKNVFYWFQNHKARERQKRRKISIDFDHHHHQPSTRDVFEISEEDCQEEEKVIETLQLFPVNSFEDSNSKVDKMRARGNNQYREYIRETTTTSFSPYSSCGAEMEHPPPLDLRLSFL", "values": [{"measurement": "binding result", "value": "binds"}]}]}
